Test results reported in IntAct's records for PubMed 25678599.

B1: Segment polarity protein dishevelled homolog DVL-2 (Mus musculus), Q60838 (parent)
chain: MAGSSAGGGGVGETKVIYHLDEEETPYLVKIPVPAERITLGDFKSVLQRPAGAKYFFKSMDQDFGVVKEEISDDNARLPCFNGRVVSWLVSSDTPQPEVAPPAHESRTELVPPPPPLPPLPPERTSGIGDSRPPSFHPNVSSSHENLEPETETESVVSLRRDRPRRRDSSEHGAGGHRPGGPSRLERHLAGYESSSTLMTSELESTSLGDSDEDDTMSRFSSSTEQSSASRLLKRHRRRRKQRPPRMERTSSFSSVTDSTMSLNIITVTLNMEKYNFLGISIVGQSNERGDGGIYIGSIMKGGAVAADGRIEPGDMLLQVNDMNFENMSNDDAVRVLRDIVHKPGPIVLTVAKCWDPSPQAYFTLPRNEPIQPIDPAAWVSHSAALTGAFPAYPGSSSMSTITSGSSLPDGCEGRGLSVHMDMASVTKAMAAPESGLEVRDRMWLKITIPNAFLGSDVVDWLYHHVEGFPERREARKYASGLLKAGLIRHTVNKITFSEQCYYVFGDLSGGCESYLVNLSLNDNDGSSGASDQDTLAPLPGATPWPLLPTFSYQYPAPHPYSPQPPPYHELSSYTYGGGSASSQHSEGSRSSGSTRSDGGAGRTGRPEERAPESKSGSGSESELSSRGGSLRRGGEPGGTGDGGPPPSRGSTGAPPNLRALPGLHPYGAPSGMALPYNPMMVVMMPPPPPPVSTAVQPPGAPPVRDLGSVPPELTASRQSFHMAMGNPSEFFVDVM
partner: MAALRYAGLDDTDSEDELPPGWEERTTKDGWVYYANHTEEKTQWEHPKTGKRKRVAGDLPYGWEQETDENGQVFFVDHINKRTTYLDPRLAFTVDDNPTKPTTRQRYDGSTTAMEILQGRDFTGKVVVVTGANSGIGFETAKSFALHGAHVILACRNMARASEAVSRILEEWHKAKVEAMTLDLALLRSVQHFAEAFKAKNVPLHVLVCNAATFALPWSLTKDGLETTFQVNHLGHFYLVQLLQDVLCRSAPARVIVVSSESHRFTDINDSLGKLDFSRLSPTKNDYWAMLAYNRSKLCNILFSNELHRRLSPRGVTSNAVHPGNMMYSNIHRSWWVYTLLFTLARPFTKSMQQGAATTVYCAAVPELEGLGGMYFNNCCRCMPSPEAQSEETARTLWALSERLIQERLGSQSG
B2: B-cell CLL/lymphoma 9-like protein (Mus musculus), Q67FY2 (parent)
chain: MRILANKTRLPHPRRREAPGSPPLSPRGHCPPAPAKPMHPENKLTNHGKTGNGGAQSQHQNVNQGPTCNLGSKGVGAGSHGAKANQISPSNSSLKNPQAGVSPFSSLKGKVKRERSVSVDSGEQREAGTPSLDSEAKEVAPRSKRRCVLERKQPYSGDEWCSGPDSEEDDKPIAAAHNCNVADPAMVTPQLGPGQTAQLPLSESSAPGPQHGPQPGLRPDVPGGGGGGVPGKPPSQFVYVFTTHLANTAAEAVLQGRAESILAYHQQNVPRAKLDQAPKVPPTPEPLPLNTPSAGTPQSQPPPLPPPPPAPGSAPPALPPEGPPEDTSQDLAPNSVGAASTGGGTGGTHPNTPTAATANNPLPPGGDPGSAPGSALLGEATPTGNGQRNLVGSEGLSKEQLEHRERSLQTLRDIERLLLRSGETEPFLKGPPGGAGEGGPPAQAPSAAQPPPSAPPGGLKKYEEPLQSMISQTQSLGGPPLEHEVPGHPQGGDMGQQMNMMMQRLGQDSLTPEQVAWRKLQEEYYEEKRRKEEQIGLHGGRPLQDMVGMGGMMGRGPPPPYHSKPGDQWPPGMGAQLRGPMDVQDPMQLRPGPPFPGPRFPGNQMQRVPGFGGMQSMPMEVPMNAMQRPVRPGMAWNEDLPPIGGPSNFAQNAVPYPGGQGEAERFMTPRVREELLRHQLLEKRSMGMQRPLGMAGSGMGQSMEMERMIQAHRQMDPAMFPGQMTGGDGLAGTPMGIEFGGGRGLLSPPMGQSGLREVDPPMGPGNLNMNMNVNMNMNMNLNVQMTPQQQMLMSQKMRGPGDMMGPQGLSPEEMARVRAQNSSGMMGGPQKMLMPSQFPNQGQQGFSGGQGPYQAMPQDMGNTPDMFSPDQSSVPMGTVGTARLSHMPLPPASNPPGSVHLASNRGLGRRPSDLTISINQMGSPGMGHLKSPTLSQVHSPLVTSPSANLKSPQTPSQMVPLPSANPPGPLKSPQVLSSSLGVRSPTGSPSRLKSPSMAVPSPGWVASPKTAMPSPGVSQNKQPPLSINSSSTLGNVEQGALPPSAPRNSSSAPPANPSSGLMNPSLPFTSSPDPTPSQNPLSLMMSQMSKYAMPSSTPLYHNAIKTIATSDDELLPDRPLLPPPPPPQGSGPGISNNQPNQMHMNPAAAQSPMGMNLPGQQPLSHEPPPTMLPSPTPLGSNIPLHPNAQGTGGSSQNSMMMAPGGPDSLNAPCGPVPSSSQMMSFPPRLQQPHGAMAPTGAGGPGLQQHYPSGMALPPEDLPTQPPGPIPPQQHLMGKGMTGRMGDAYPPGVLPGVASVLNDPELSEVIRPTPTGIPEFDLSRIIPSEKPSSTLQYFPKSENQPPKAQPPNLHLMNLQNMMAEQTPSRPPNLPGQQGVQRGLSMSMCHPGQMSLLGRTGVPPQQGMVPHGLHQGVMSPPQGLMTQQNFMLMKQRGVGGEVYTQPPHMLSPQGSLMGPPPQQNLMVSHPLRQRSVSLDSQMGYLPTPGSMANLPF
partner: B1 partner
B3: WW domain-containing oxidoreductase (Homo sapiens), Q9NZC7 (parent)
chain: B1 partner
partner: B1 chain
B4: WW domain-containing oxidoreductase (Homo sapiens), Q9NZC7 (parent)
chain: B1 partner
partner: B2 chain

Variants of: B1
Conditions: with wwox_human WWOX, Q9NZC7

Row | effect of a mutation on the interaction | Variant
1 | decreasing interaction | Y568A

Variants of: B2
Conditions: with wwox_human WWOX, Q9NZC7

Row | effect of a mutation on the interaction | Variant
2 | disrupting interaction | Y561A

Variants of: B3
Conditions: with dvl2_mouse Dvl2, Q60838

Row | effect of a mutation on the interaction | Variant
3 | decreasing interaction | MAALRYAGLDDTDSEDELPPGWEERTTKDGWVRYANHTEEKTQWEHPKTGKRKRVAGDLPYGWEQETDENGQVFFVDHINKRTTYLDPRLAFTVDDNPTKPTTRQRYDGSTTAMEILQGRDFTGKVVVVTGANSGIGFETAKSFALHGAHVILACRNMARASEAVSRILEEWHKAKVEAMTLDLALLRSVQHFAEAFKAKNVPLHVLVCNAATFALPWSLTKDGLETTFQVNHLGHFYLVQLLQDVLCRSAPARVIVVSSESHRFTDINDSLGKLDFSRLSPTKNDYWAMLAYNRSKLCNILFSNELHRRLSPRGVTSNAVHPGNMMYSNIHRSWWVYTLLFTLARPFTKSMQQGAATTVYCAAVPELEGLGGMYFNNCCRCMPSPEAQSEETARTLWALSERLIQERLGSQSG [Y33R]

Variants of: B4
Conditions: with bcl9l_mouse Bcl9l, Q67FY2

Row | effect of a mutation on the interaction | Variant
4 | decreasing interaction | MAALRYAGLDDTDSEDELPPGWEERTTKDGWVRYANHTEEKTQWEHPKTGKRKRVAGDLPYGWEQETDENGQVFFVDHINKRTTYLDPRLAFTVDDNPTKPTTRQRYDGSTTAMEILQGRDFTGKVVVVTGANSGIGFETAKSFALHGAHVILACRNMARASEAVSRILEEWHKAKVEAMTLDLALLRSVQHFAEAFKAKNVPLHVLVCNAATFALPWSLTKDGLETTFQVNHLGHFYLVQLLQDVLCRSAPARVIVVSSESHRFTDINDSLGKLDFSRLSPTKNDYWAMLAYNRSKLCNILFSNELHRRLSPRGVTSNAVHPGNMMYSNIHRSWWVYTLLFTLARPFTKSMQQGAATTVYCAAVPELEGLGGMYFNNCCRCMPSPEAQSEETARTLWALSERLIQERLGSQSG [Y33R]
